Measurements taken from the DeepSol protein solubility set.

assay: soluble on expression in E. coli; label from the status in PepcDB or PDB records

| Sequence | soluble on expression in E. coli |
| --- | --- |
| MGSDKIHHHHHHMQGVEPRERPYPQPNIQISYKKMEECPICLADDQEGEQFGCLNVCGHKFHLNCIREWHKYSINLKCPICRVESTHLEVGEGQHALSINLKMGFMIKNAIDYVGAETTNERNEDDTGEQDQEIEFLSERLRGTLVMDTIKIIQCSICGDTDVSRLSLYCQDCEAIYHETCLRGLACEVGDRNTWQECTDCRSNALLELRMGAISSQLASYDSRNSMIFAGELRDKHSVKTQQMYEQIRNAKHKIQMHVRRALDRYPLPLLRFKDAYKHVNKQVSRKLYRLSDNKYLPDQYDYDSLARTGVHTELLIYCHDE | not soluble |
| MAHHHHHHMSDEGFEDLFILDTDPEELYEELGPIGVGNYGSVIKARNRHTQEITAIKLVLLVDKDERDFVQREISILKHCRHPNIVHYYGAHKSLSKLWIVMEYCEGGSIDMVYKVLRHPLPEPLIAYVCRQVLLGLQYLHANRKIHRDIKGGNILLTRDGGVKLADFGVSTELSHSLSRRNTFVGTLLWMAPEAILELDYDEKADLWSLGITLIEMAEGAPPYIDTHPARALFMIPKMDPPSLQDKERWSPQMTLFLKRLLTKDHNARPTATTMLNDPFVLPENIGTQEQLKAVIDEVLAKKASIDPQRMRDYTDSSATFVERTSSDGGGGDDHSTDSRDEVQPHLTAKGLTNAPANSIEALDGAGTHLFFQDGTLLPLPMLYTQDISFDELCVGEELNGPFSLPVPSVESLLVPPEQQSTACHGGEALAHTMHVTAKLKEMLYYHKQLPYCRGLTDAEAAKSREMQLKYGSVLKSVYRL | not soluble |
| MAVIKQDDLIQSVADALQFISYYHPVDFIQAMHEAYLREESPAARDSMAQILINSRMCATGHRPICQDTGIVTVFVRVGMDVRWDGATMSVDDMINEGVRRAYNLPENVLRASILADPAGARKNTKDNTPAVIHYSIVPGDKVEVDVAAKGGGSENKSKMAMLNPSDSIVDWVLKTVPTMGAGWCPPGMLGIGIGGTAEKAAVMAKEVLMDPIDIHELKARGPQNRIEELRLELFEKVNQLGIGAQGLGGLTTVLDVKIMDYPTHAASLPVCMIPNCAATRHAHFVLDGSGPAELEAPSLDAYPEIVWEAGPSARRVDLDKITPEEVQSWKPGETLLLNGKMLTGRDAAHKRMVDMLNKGETLPVDLKGRFIYYVGPVDPVGDEVVGPAGPTTATRMDKFTRQILEQTGLLGMIGKSERGPIAIEAIKDNKAVYLMAVGGAAYLVAQAIKKSKVLAFAELGMEAIYEFEVKDMPVTVAVDTNGESVHITGPAVWQ | not soluble |
| MQTNLLSRPTSAKSTSMSDKINHPQLCQWLESVAISRDKQAFTHLFQFFAPKILRIARGKFPNEAQANEVVQDTMSNVWRKAHLYNQDKGAATTWVYTVMRNVTFDMLRKIQGNKEDNLSDDIWPIAESMSIENEIFDDHLEHANLLSVIEELPQAQQDVVKGFYFREMSQEQLAVHLHLPLGTVKSRLRLALGKLKVQLGEKHD | not soluble |
| GSAAPPAKEIPEVLVDPRSRRRYVRGRFLGKGGFAKCFEISDADTKEVFAGKIVPKSLLLKPHQREKMSMEISIHRSLAHQHVVGFHGFFEDNDFVFVVLELCRRRSLLELHKRRKALTEPEARYYLRQIVLGCQYLHRNRVIHRDLKLGNLFLNEDLEVKIGDFGLATKVEYDGERKKTLCGTPNYIAPEVLSKKGHSFEVDVWSIGCIMYTLLVGKPPFETSCLKETYLRIKKNEYSIPKHINPVAASLIQKMLQTDPTARPTINELLNDEFFTSGYIPARLPITCLTIPPRFSIAPSSLDPSNRKPLTVLNK | soluble |
| MENVTESKELERLKRIDRMKTEFIANISHELRTPLTAIKAYAETIYNSLGELDLSTLKEFLEVIIDQSNHLENLLNELLDFSRLERKSLQINREKVDLCDLVESAVNAIKEFASSHNVNVLFESNVPCPVEAYIDPTRIRQVLLNLLNNGVKYSKKDAPDKYVKVILDEKDGGVLIIVEDNGIGIPDHAKDRIFEQFYRVDSSLTYEVPGTGLGLAITKEIVELHGGRIWVESEVGKGSRFFVWIPKDRAGEDNRQDN | soluble |
| SLRDSFHFKTYRKRRICPTMTLVLDLDETLIYCTKKRKYHYQKEVDVLINGKYLPLYVCKRPYIDLFFSSLYPFYEIIIFTTAIKSYADTVLNIIDVDHYIDKKFYREDCYEMNEKLYIKNLTNIKKELSKIILIDDSNISGFQYPDNFFPIKKWQGDLNDNELLHLIPFFLNLRKLKDIRSLCSFRLISQKDVSKLLCTSS | not soluble |
| MARPLKEGLDYFPLDVDADYDDKFQLIETLHGPTGFAIMIKLFMKIYSQNFYYKWTETEQILFAKRVNVDINTLKTVVNDCIKYDLFDNNLFSEFQILTSLGVQERYFTAIGRRKKQIVVLEYLLLDRPEVINLCPKIVFANINVVNDDINAEQEELMPALSAQTKGKESKVNESKAVVSEQEKLPEKIVKEKPTTTAYKFWEENVAITGLSEFDRELLKKLISLGGNELTVHAMKKAIELNRRRMKTVDTVLRGWLDNGVKTTAEADEQEKNWNGGAKKNARAEPAKQEIKISDQYNFGATRTD | not soluble |
| MSGMWLWASVSPESTGIKMSESFAELFEESLKTLNLQPGAIITGIVVDIDGDWVTVHAGLKSEGVIPLEQFYNEAGELTIKVGDEVHVALDAVEDGFGETKLSREKAKRAECWIVLEAAFAAEEVVKGVINGKVKGGFTVDVNGIRAFLPGSLVDVRPVRDTTHLEGKELEFKVIKLDQKRNNVVVSRRSVLEAENSAEREALLETLQEGQQVKGIVKNLTDYGAFVDLGGIDGLLHITDMAWKRIKHPSEIVNVGDEVDVRVLKFDRERNRVSLGLKQMGEDPWVAITARYPEGTRVQARVTNLTDYGCFAELEEGVEGLVHVSEMDWTNKNIHPSKVVQVGDEVEVMVLDIDEERRRISLGIKQCKSNPWEDFSGQFNKGDKITGTIKSITDFGIFIGLDGGIDGLVHLSDISWNETGEEAVRRFKKGDELETVILSVDPERERISLGIKQLEDDPFSNFVAVNDKGAIVKGIVKEVDAKGAIVTLADDIEATLKASEISRDRVEDARNVLKEGEEIEAKIISVDRKSRVISLSIKSKDDAEEREAIQSLKNAPEAAADTTMAALLREAMAKQNLEHHHHHH | soluble |
| CSDLPEIQNGWKTTSHTELVRGARITYQCDPGYDIVGSDTLTCQWDLSWSSDPPFCEKTEE | soluble |
| MYSFELDKLKIELKTWEHDFIDKNKREPTRDDIKSLRTVRQMYKQYSTLKKKQSLQRQKVDTQESVELPAHKKDHDEVVEIGPTPQVYGKAISIFDMNLSPIKPIYMTFTNNIDVNNDNSKTISNESSPRKTILLKSSPADRTLVAEPISSVKRQLNFQMLNASSTRTPTSSPCKNRNGKLVEIKKCSPTINPPLESGKPSGYYGPNSPLKLDEENIHLNISLNSSTKRRLQIAYPSLQKTPSKDQADISTSFSPSPLIRRPLTKSLIELAREHTEIVKEFGVLQEEDIEEEEEGEEGENGYDEKNHEDDFGLEDELIRPKVVKDIFQEDDDNDDSQAREDTFIRKRPKRRKVIRRLRDNDPETETAGFERDVHKELVKLKRRKVAEFLGSTSQISDTEFEHDPEASSGVVSSEQKPTAKRKGRKKYNLVSNNFRRLKLPKKNRFSNGRWGRR | not soluble |
| MSLMNAEQGVCAWAMNHPLEREYHDKEWGRAVHDDTKLFEFLTLEGAQAGLSWLTVLKKREGYRQAFLGYDLQRLAQCDESHVEQIIAEYDVVKHRGKIASVFSNARAALALQQEFGSLDAALWQFVGGQPKINRWVSMSDVPASTEESKAMSKFLKKRGFKFVGETICYAFMQACGLVNDHLVGCPNHSNADKLEGGSHHHHHH | soluble |
| MSFDADEEILQDFLVEAGEILEQLSEQLVELESRPDDMDLLNAIFRGFHTVKGGAGFLQLNALVECCHIAENVFDILRKGERRVSSELMDVVLQALDTVNAMFDQVREQSEPTPATPELLAALARLAEPEGAEPAEPVQAPPAAVPPAEPAAPPEAPAQSASSDITDDEFEQLLDALQGDEAPASAVAEAPAAPAGDEISDAEFEALLDQLHGKGKFVPPAVSAEPAQVPAEAVEPAAAAAGDDISDDEFEALLDELHGKGKFGDVPEAAGTPAAPAAAAPAAAPAEQGKAPAAAGGDEISDDEFESLLDELHGKGKFNGASEAVAAAAAVAKNIAAKSPAAKPVAPAKAAAARPAAPDRPAASEAETTVRVDTARLDEIMNMVGELVLVRNRLVRLGLNSGDEAMAKAVANLDVVTGDLQMSVMKTRMQPIKKVFGRFPRLVRDLARNMKKEINLELVGEETDLDKNLVEALADPLVHLVRNAVDHGIESPEEREAAGKPRVGQVVLSAEQEGDHILLMITDDGKGMDAEVLRNKAVEKGLLERDAADRLTDLECYNLIFAPGFSTKTEISDVSGRGVGMDVVKTKISQLNGTVNVFSQKGSGSKIVIKVPLTLAIMPTLMVMLGSQAFAFPLVNVNEIFHLDLSRTNVVDGQEVVIVRDKALPLFYLKRWLVPSAAHEEQGEGHVVILSVGTQRIGFVVDQLVGQEEVVIKPLGKMLQGTPGMAGATITGDGRIALILDVPSMLKRYARRI | not soluble |
| AYPSFEAYSNYKVDRTDLETFLDKQKEVSLYYLLQNIAYPEGQFNNGVPGTVIASPSTSNPDYYYQWTRDSAITFLTVLSELEDNNFNTTLAKAVEYYINTSYNLQRTSNPSGSFDDENHKGLGEPKFNTDGSAYTGAWGRPQNDGPALRAYAISRYLNDVNSLNEGKLVLTDSGDINFSSTEDIYKNIIKPDLEYVIGYWDSTGFDLWEENQGRHFFTSLVQQKALAYAVDIAKSFDDGDFANTLSSTASTLESYLSGSDGGFVNTDVNHIVENPDLLQQNSRQGLDSATYIGPLLTHDIGESSSTPFDVDNEYVLQSYYLLLEDNKDRYSVNSAYSAGAAIGRYPEDVYNGDGSSEGNPWFLATAYAAQVPYKLAYDAKSASNDITINKINYDFFNKYIVDLSTINSAYQSSDSVTIKSGSDEFNTVADNLVTFGDSFLQVILDHINDDGSLNEQLNRYTGYSTGAYSLTWSSGALLEAIRLRNKVKALA | soluble |
| MGSSHHHHHHSSGLVPRGSHMLKFDVNTSAVQVLIEHIGNLDRAYEFAERCNEPAVWSQLAKAQLQKGMVKEAIDSYIKADDPSSYMEVVQAANTSGNWEELVKYLQMARKKARESYVETELIFALAKTNRLAELEEFINGPNNAHIQQVGDRCYDEKMYDAAKLLYNNVSNFGRLASTLVHLGEYQAAVDGARKANSTRTWKEVCFACVDGKEFRLAQMCGLHIVVHADELEELINYYQDRGYFEELITMLEAALGLERAHMGMFTELAILYSKFKPQKMREHLELFWSRVNIPKVLRAAEQAHLWAELVFLYDKYEEYDNAIITMMNHPTDAWKEGQFKDIITKVANVELYYRAIQFYLEFKPLLLNDLLMVLSPRLDHTRAVNYFSKVKQLPLVKPYLRSVQNHNNKSVNESLNNLFITEEDYQALRTSIDAYDNFDNISLAQRLEKHELIEFRRIAAYLFKGNNRWKQSVELCKKDSLYKDAMQYASESKDTELAEELLQWFLQEEKRECFGACLFTCYDLLRPDVVLETAWRHNIMDFAMPYFIQVMKEYLTKVDKLDASESLRKEEEQATETQPIVYGQPQLMLTAGPSVAVPPQAPFGYGYTAPAYGQPQPGFGYSM | soluble |
| MAHHHHHHHRSPTRVNDGVDADEVTFVNRFTVHGAPAEFESVFARTAAFFARQPGFVRHTLLRERDKDNSYVNIAVWTDHDAFRRALAQPGFLPHATALRALSTSEHGLFTARQTLPEGGDTTGSGHR | soluble |
| HPSIFAATDGHSSRLDVTMGMSYNNRFFASLMYRPTQAVGVSLGMQLGKFYAGYAFEWPTSVLAKASWGSHELLVSYSFPLSNTKNRDAKYKSIRFL | not soluble |
